These results are taken from article PMC2776356 (2009).

B1: wild-type GST-Nkd1 [human] / in vitro translated ^35[S]-labelled Dvl3 [modified: 35S-methionine label; 35S-methionine label] [human] (parent complex)
chain 1: MGKLHSKPAAVCKRRESPEGDSFAVSAAWARKGIEEWIGRQRCPGGVSGPRQLRLAGTIGRSTRELVGDVLRDTLSEEEEDDFRLEVALPPEKTDGLGSGDEKKMERVSEPCPGSKKQLKFEELQCDVSMEEDSRQEWTFTLYDFDNNGKVTREDITSLLHTIYEVVDSSVNHSPTSSKMLRVKLTVAPDGSQSKRSVLVNQADLQSARPRAETKPTEDLRSWEKKQRAPLRFQGDSRLEQSGCYHHCVDENIERRNHYLDLAGIENYTSQFGPGSPSVAQKSELPPRTSNPTRSRSHEPEAIHIPHRKPQGVDPASFHFLDTPIAKVSELQQRLRGTQDGSKHFVRSPKAQGKSVGVGHVARGARNKPPLGPAIPAVSPSAHLAASPALLPSLAPLGHKKHKHRAKESQQGCRGLQAPLASGGPVLGREHLRELPALVVYESQAGQPVQRHEHHHHHEHHHHYHHFYQT
chain 2: MGETKIIYHLDGQETPYLVKLPLPAERVTLADFKGVLQRPSYKFFFKSMDDDFGVVKEEISDDNAKLPCFNGRVVSWLVSAEGSHPDPAPFCADNPSELPPPMERTGGIGDSRPPSFHPHAGGGSQENLDNDTETDSLVSAQRERPRRRDGPEHATRLNGTAKGERRREPGGYDSSSTLMSSELETTSFFDSDEDDSTSRFSSSTEQSSASRLMRRHKRRRRKQKVSRIERSSSFSSITDSTMSLNIITVTLNMEKYNFLGISIVGQSNERGDGGIYIGSIMKGGAVAADGRIEPGDMLLQVNEINFENMSNDDAVRVLREIVHKPGPITLTVAKCWDPSPRGCFTLPRSEPIRPIDPAAWVSHTAAMTGTFPAYGMSPSLSTITSTSSSITSSIPDTERLDDFHLSIHSDMAAIVKAMASPESGLEVRDRMWLKITIPNAFIGSDVVDWLYHNVEGFTDRREARKYASNLLKAGFIRHTVNKITFSEQCYYIFGDLCGNMANLSLHDHDGSSGASDQDTLAPLPHPGAAPWPMAFPYQYPPPPHPYNPHPGFPELGYSYGGGSASSQHSEGSRSSGSNRSGSDRRKEKDPKAGDSKSGGSGSESDHTTRSSLRGPRERAPSERSGPAASEHSHRSHHSLASSLRSHHTHPSYGPPGVPPLYGPPMLMMPPPPAAMGPPGAPPGRDLASVPPELTASRQSFRMAMGNPSEFFVDVM
B2: wild-type GST-Nkd1 [human] / in vitro translated ^35[S]-labelled Dvl2 [modified: 35S-methionine label; 35S-methionine label] [not stated (human or mouse cDNA cloned)] (parent complex)
chain 1: B1 chain 1
chain 2: MAGSSTGGGGVGETKVIYHLDEEETPYLVKIPVPAERITLGDFKSVLQRPAGAKYFFKSMDQDFGVVKEEISDDNARLPCFNGRVVSWLVSSDNPQPEMAPPVHEPRAELAPPAPPLPPLPPERTSGIGDSRPPSFHPNVSSSHENLEPETETESVVSLRRERPRRRDSSEHGAGGHRTGGPSRLERHLAGYESSSTLMTSELESTSLGDSDEEDTMSRFSSSTEQSSASRLLKRHRRRRKQRPPRLERTSSFSSVTDSTMSLNIITVTLNMEKYNFLGISIVGQSNERGDGGIYIGSIMKGGAVAADGRIEPGDMLLQVNDMNFENMSNDDAVRVLRDIVHKPGPIVLTVAKCWDPSPQAYFTLPRNEPIQPIDPAAWVSHSAALTGTFPAYPGSSSMSTITSGSSLPDGCEGRGLSVHTDMASVTKAMAAPESGLEVRDRMWLKITIPNAFLGSDVVDWLYHHVEGFPERREARKYASGLLKAGLIRHTVNKITFSEQCYYVFGDLSGGCESYLVNLSLNDNDGSSGASDQDTLAPLPGATPWPLLPTFSYQYPAPHPYSPQPPPYHELSSYTYGGGSASSQHSEGSRSSGSTRSDGGAGRTGRPEERAPESKSGSGSESEPSSRGGSLRRGGEASGTSDGGPPPSRGSTGGAPNLRAHPGLHPYGPPPGMALPYNPMMVVMMPPPPPPVPPAVQPPGAPPVRDLGSVPPELTASRQSFHMAMGNPSEFFVDVM
B3: wild-type GST-Nkd1 [human] / in vitro translated ^35[S]-labelled Dvl1 [modified: 35S-methionine label; 35S-methionine label] [human] (parent complex)
chain 1: B1 chain 1
chain 2: MAETKIIYHMDEEETPYLVKLPVAPERVTLADFKNVLSNRPVHAYKFFFKSMDQDFGVVKEEIFDDNAKLPCFNGRVVSWLVLAEGAHSDAGSQGTDSHTDLPPPLERTGGIGDSRPPSFHPNVASSRDGMDNETGTESMVSHRRERARRRNREEAARTNGHPRGDRRRDVGLPPDSASTALSSELESSSFVDSDEDGSTSRLSSSTEQSTSSRLIRKHKRRRRKQRLRQADRASSFSSITDSTMSLNIVTVTLNMERHHFLGISIVGQSNDRGDGGIYIGSIMKGGAVAADGRIEPGDMLLQVNDVNFENMSNDDAVRVLREIVSQTGPISLTVAKCWDPTPRSYFTVPRADPVRPIDPAAWLSHTAALTGALPRYGTSPCSSAVTRTSSSSLTSSVPGAPQLEEAPLTVKSDMSAVVRVMQLPDSGLEIRDRMWLKITIANAVIGADVVDWLYTHVEGFKERREARKYASSLLKHGFLRHTVNKITFSEQCYYVFGDLCSNLATLNLNSGSSGTSDQDTLAPLPHPAAPWPLGQGYPYQYPGPPPCFPPAYQDPGFSYGSGSTGSQQSEGSKSSGSTRSSRRAPGREKERRAAGAGGSGSESDHTAPSGVGSSWRERPAGQLSRGSSPRSQASATAPGLPPPHPTTKAYTVVGGPPGGPPVRELAAVPPELTGSRQSFQKAMGNPCEFFVDIM

The first assay covers variants of B1. The assay is described as follows: GST-pulldown; parent: 1; read off a plot.
On to chain 1 MGKLHSKPAAVCKRRESPEGDSFAVSAAWARKGIEEWIGRQRCPGGVSGPRQLRLAGTIGRSTRELVGDVLRDTLSEEEEDDFRLEVALPPEKTDGLGSGDEKKMERVSEPCPGSKKQLKFEELQCDVSMEEDSRQEWTFTLYDFDNNGKVTREDITSLLHTIYEVVDSSVNHSPTSSKMLRVKLTVAPDGSQSKRSVLVNQADLQSARPRAETKPTEDLRSWEKKQRAPLRFQGDSRLEQSGCYHHCVDENIERRNHYLDLAGIENYTSQFGPGSPSVAQKSELPPHTSNPTRSRSHEPEAIHIPHRKPQGVDPASFHFLDTPIAKVSELQQRLRGTQDGSKHFVRSPKAQGKSVGVGHVARGARNKPPLGPAIPAVSPSAHLAASPALLPSLAPLGHKKHKHRAKESQQGCRGLQAPLASGGPVLGREHLRELPALVVYESQAGQPVQRHEHHHHHEHHHHYHHFYQT [chain 1 R288H], for which the ratio to parent was approximately 0.7.

In another assay the parent is B1. Description: yeast two-hybrid (quantitative ONPG assay); parent: 4; read off a plot.
chain 1 MGKLHSKPAAVCKRRESPEGDSFAVSAAWARKGIEEWIGRQRCPGGVSGPRQLRLAGTIGRSTRELVGDVLRDTLSEEEEDDFRLEVALPPEKTDGLGSGDEKKMERVSEPCPGSKKQLKFEELQCDVSMEEDSRQEWTFTLYDFDNNGKVTREDITSLLHTIYEVVDSSVNHSPTSSKMLRVKLTVAPDGSQSKRSVLVNQADLQSARPRAETKPTEDLRSWEKKQRAPLRFQGDSRLEQSGCYHHCVDENIERRNHYLDLAGIENYTSQFGPGSPSVAQKSELPPHTSNPTRSRSHEPEAIHIPHRKPQGVDPASFHFLDTPIAKVSELQQRLRGTQDGSKHFVRSPKAQGKSVGVGHVARGARNKPPLGPAIPAVSPSAHLAASPALLPSLAPLGHKKHKHRAKESQQGCRGLQAPLASGGPVLGREHLRELPALVVYESQAGQPVQRHEHHHHHEHHHHYHHFYQT [chain 1 R288H]: the response was approximately 3 ONPG units.

In another assay the parent is B2. The assay is described as follows: GST-pulldown; parent: 1; read off a plot.
On to chain 1 MGKLHSKPAAVCKRRESPEGDSFAVSAAWARKGIEEWIGRQRCPGGVSGPRQLRLAGTIGRSTRELVGDVLRDTLSEEEEDDFRLEVALPPEKTDGLGSGDEKKMERVSEPCPGSKKQLKFEELQCDVSMEEDSRQEWTFTLYDFDNNGKVTREDITSLLHTIYEVVDSSVNHSPTSSKMLRVKLTVAPDGSQSKRSVLVNQADLQSARPRAETKPTEDLRSWEKKQRAPLRFQGDSRLEQSGCYHHCVDENIERRNHYLDLAGIENYTSQFGPGSPSVAQKSELPPHTSNPTRSRSHEPEAIHIPHRKPQGVDPASFHFLDTPIAKVSELQQRLRGTQDGSKHFVRSPKAQGKSVGVGHVARGARNKPPLGPAIPAVSPSAHLAASPALLPSLAPLGHKKHKHRAKESQQGCRGLQAPLASGGPVLGREHLRELPALVVYESQAGQPVQRHEHHHHHEHHHHYHHFYQT [chain 1 R288H], for which the ratio to parent was approximately 0.14.

Variants of B2 are the subject of another assay. Description: yeast two-hybrid (quantitative ONPG assay); parent: 4.7; read off a plot.
With chain 1 MGKLHSKPAAVCKRRESPEGDSFAVSAAWARKGIEEWIGRQRCPGGVSGPRQLRLAGTIGRSTRELVGDVLRDTLSEEEEDDFRLEVALPPEKTDGLGSGDEKKMERVSEPCPGSKKQLKFEELQCDVSMEEDSRQEWTFTLYDFDNNGKVTREDITSLLHTIYEVVDSSVNHSPTSSKMLRVKLTVAPDGSQSKRSVLVNQADLQSARPRAETKPTEDLRSWEKKQRAPLRFQGDSRLEQSGCYHHCVDENIERRNHYLDLAGIENYTSQFGPGSPSVAQKSELPPHTSNPTRSRSHEPEAIHIPHRKPQGVDPASFHFLDTPIAKVSELQQRLRGTQDGSKHFVRSPKAQGKSVGVGHVARGARNKPPLGPAIPAVSPSAHLAASPALLPSLAPLGHKKHKHRAKESQQGCRGLQAPLASGGPVLGREHLRELPALVVYESQAGQPVQRHEHHHHHEHHHHYHHFYQT [chain 1 R288H], the response is approximately 2.5 ONPG units.

The variants in another assay derive from B3. Description: GST-pulldown; parent: 1; read off a plot.
Regarding chain 1 MGKLHSKPAAVCKRRESPEGDSFAVSAAWARKGIEEWIGRQRCPGGVSGPRQLRLAGTIGRSTRELVGDVLRDTLSEEEEDDFRLEVALPPEKTDGLGSGDEKKMERVSEPCPGSKKQLKFEELQCDVSMEEDSRQEWTFTLYDFDNNGKVTREDITSLLHTIYEVVDSSVNHSPTSSKMLRVKLTVAPDGSQSKRSVLVNQADLQSARPRAETKPTEDLRSWEKKQRAPLRFQGDSRLEQSGCYHHCVDENIERRNHYLDLAGIENYTSQFGPGSPSVAQKSELPPHTSNPTRSRSHEPEAIHIPHRKPQGVDPASFHFLDTPIAKVSELQQRLRGTQDGSKHFVRSPKAQGKSVGVGHVARGARNKPPLGPAIPAVSPSAHLAASPALLPSLAPLGHKKHKHRAKESQQGCRGLQAPLASGGPVLGREHLRELPALVVYESQAGQPVQRHEHHHHHEHHHHYHHFYQT [chain 1 R288H], the ratio to parent is approximately 0.19.

Variants of B3 are the subject of the next assay. Description: yeast two-hybrid (quantitative ONPG assay); parent: 6.2; read off a plot.
On to chain 1 MGKLHSKPAAVCKRRESPEGDSFAVSAAWARKGIEEWIGRQRCPGGVSGPRQLRLAGTIGRSTRELVGDVLRDTLSEEEEDDFRLEVALPPEKTDGLGSGDEKKMERVSEPCPGSKKQLKFEELQCDVSMEEDSRQEWTFTLYDFDNNGKVTREDITSLLHTIYEVVDSSVNHSPTSSKMLRVKLTVAPDGSQSKRSVLVNQADLQSARPRAETKPTEDLRSWEKKQRAPLRFQGDSRLEQSGCYHHCVDENIERRNHYLDLAGIENYTSQFGPGSPSVAQKSELPPHTSNPTRSRSHEPEAIHIPHRKPQGVDPASFHFLDTPIAKVSELQQRLRGTQDGSKHFVRSPKAQGKSVGVGHVARGARNKPPLGPAIPAVSPSAHLAASPALLPSLAPLGHKKHKHRAKESQQGCRGLQAPLASGGPVLGREHLRELPALVVYESQAGQPVQRHEHHHHHEHHHHYHHFYQT [chain 1 R288H], for which the response was approximately 2.4 ONPG units.
